The target in data set [1] is T1, α-isopropylmalate synthase LeuA1 (Mortierella alpina, UniProt A0A9P6IVH7).
T1 construct: gene BGZ70_001638; N-terminally His6-tagged LeuA1
The data set is described as follows: continuous DTNB assay of CoA release with purified recombinant enzyme. In kind it is biochemical.

The target in data set [2] is LeuA1, α-isopropylmalate synthase of Mortierella alpina (Mortierella alpina). Nature of the data set: SEC; size exclusion chromatography of the purified His6-tagged proteins in solution; conditions are in the Supplementary Materials. (In general: In gel filtration, larger molecules generally elute earlier.)
Data set [3] has as its target T2, BCAA aminotransferase BatA (Mortierella alpina, UniProt A0A9P6M176).
T2 construct: gene BCAT1; 374 aa), N-terminally His6-tagged
The data set is described as follows: activity of purified enzyme with and without PLP (HILIC-UHPLC-MS). In kind it is biochemical.

Substrate in the data set “purified protein”: CC(=O)SCCNC(=O)CCNC(=O)[C@H](O)C(C)(C)COP(=O)(O)OP(=O)(O)OC[C@H]1O[C@@H](n2cnc3c(N)ncnc32)[C@H](O)[C@@H]1OP(=O)(O)O
Nature of the data set: purified protein. Particulars: divalent cation (Mg2+, exchangeable with Ca2+ or Mn2+).

Substrate in data set [4]: CC(C)C(=O)C(=O)O
Nature of the data set: Michaelis-Menten kinetics (KM), DTNB assay with purified recombinant enzyme. In kind it is biochemical, Mortierella alpina. To be noted: divalent cation (Mg2+, exchangeable with Ca2+ or Mn2+) substrate binding pocket.

Substrate in data set [5]: CCC(=O)C(=O)O
The data set is described as above. In kind it is biochemical, Mortierella alpina. Particulars: divalent cation (Mg2+, exchangeable with Ca2+ or Mn2+).

Like-named read-outs stand apart in the source and are kept apart here.

T2 sequence (A0A9P6M176 entry or part of it): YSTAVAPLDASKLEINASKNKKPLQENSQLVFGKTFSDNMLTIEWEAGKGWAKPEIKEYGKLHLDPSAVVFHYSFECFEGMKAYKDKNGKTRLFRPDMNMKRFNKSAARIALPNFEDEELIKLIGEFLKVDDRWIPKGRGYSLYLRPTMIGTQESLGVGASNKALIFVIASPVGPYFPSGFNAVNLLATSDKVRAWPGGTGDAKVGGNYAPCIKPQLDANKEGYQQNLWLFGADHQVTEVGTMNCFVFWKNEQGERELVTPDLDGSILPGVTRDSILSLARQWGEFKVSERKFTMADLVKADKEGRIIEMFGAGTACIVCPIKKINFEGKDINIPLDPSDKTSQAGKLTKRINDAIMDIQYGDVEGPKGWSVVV

A word on the Ki: it is the dissociation constant of the complex between target and ligand, obtained from inhibition or displacement. In the case of `CC(C)C[C@H](N)C(=O)O` [Leu, L-leucine], in data set [1] (read-out: KI), the Ki came to 53 ± 2.5 µM.
One may read the stoichiometry N as a count of units in the complex or per binding partner. Take “LeuA1, α-isopropylmalate synthase of Mortierella alpina (enzyme)”: the stoichiometry N in data set [2] came out at 6.
Regarding `CC(C)CC(=O)C(=O)O` [KIC, α-ketoisocaproate], the Ki in data set [1] (read-out: KI) came out at 293 ± 30.4 µM.
As to `Cc1ncc(COP(=O)(O)O)c(C=O)c1O` [PLP, pyridoxal phosphate], the “activity of purified enzyme with and without PLP (HILIC-UHPLC-MS)” value in data set [3] is “The enzyme converted all BCAAs (L-Ile, L-Leu, L-Val) and their respective α-keto acids in a PLP-dependent manner”.
In the case of `CCC(=O)SCCNC(=O)CCNC(=O)[C@H](O)C(C)(C)COP(=O)(O)OP(=O)(O)OC[C@H]1O[C@@H](n2cnc3c(N)ncnc32)[C@H](O)[C@@H]1OP(=O)(O)O` [Prop-CoA, propionyl-CoA], the Ki in data set [1] is 320 ± 121 µM.

B1: α-isopropylmalate synthase LeuA1 (Mortierella alpina) (protein)
chain: MAQANKDKLIIFDTTLRDGEQSPGVTLTVNEKIEIAKQLSRLGVDVLEAGFPVASQGDFDAVERIAIEVGPLMVGREALGKPITIAGLARAVPADIQRCYDAIAKAPHKRIHTFLATSDIHLEHKLKISRDECVKRAVAAVSFAKTLVQDVEFSPEDAGRSDQDFLCKVLSAVIEAGATTLNIPDTVGYNMPEEYGSMIKYLIANTKGSDTVIWSAHCHNDLGLATANTLSGIMNGIRQVEVTINGIGERAGNTAMEEVVMAIHTHPNFFPVYHTINTPLFFRISQLVSSLSGMAVQSNKAIVGANAFLHESGIHQDGVLKNKTTYEIISPETVGANTVNLVLGKHSGRAAFKSRLQELGFGELSDEEFQVAFNSFKTLADSKKRVTEQDLLALLSDQVSAASGDKATFVIKSLQVVSGTSFATATVQLQNSQTGDVVVDAAIGKSGPVEAVFLAIQRLVGKRIRLLKFDITAVGEGVDALGQVSVKIAEDTSSPGSSDNDETAEEAKDSESKANEISQATYHGHGADSDIIQAATKAYLNAINRLVANENERLLGERKVDV
notes: N-terminally His6-tagged LeuA1
By Km is commonly meant the concentration of substrate that gives half-maximal velocity. By kcat is commonly meant the number of substrate molecules converted per active site and unit of time at saturation. Usually kcat/Km stands for the turnover number divided by the Michaelis constant. Regarding B1, in the data set “purified protein”, the Km is listed as 28.6 ± 4.1 µM, the kcat was 25 s⁻¹ and the kcat/Km was determined as 873000 M⁻¹ s⁻¹. Further, in data set [4], the Km is given as 56.9 ± 6.3 µM, the kcat turned out to be 26.6 ± 1.2 s⁻¹ and the kcat/Km amounted to 467000 M⁻¹ s⁻¹. In addition, in data set [5], the Km was found to be 280.8 ± 45.0 µM, the catalytic constant (kcat) came out at 47.4 ± 5.41 s⁻¹ and the kcat/Km amounted to 169000 M⁻¹ s⁻¹.

The values above are taken from PMC8880518, “Regulation of the Leucine Metabolism in Mortierella alpina” (Journal of Fungi, 2022).
